According to patent publication US20230406927A1 (REGENTS OF THE UNIVERSITY OF MINNESOTA, published 2023):

B1: hHINT1-anti-CD3-1DD fusion protein (VHH)
chain: MGHHHHHHMADEIAKAQVARPGGDTIFGKIIRKEIPAKIIFEDDRSLAFHDISPQAPTHFLVIPKKHISQISVAEDDDESLLGHLMIVGKKSAADLGLNKGYRMEVNEGSDGGQSVYHVHLHVLGGRQMHWPPGGGSGGGPLGVRGSGGELEVQLLEEVQLVESGGGLVQPGGSLRLSCAASGFTFDDYGMSWVRQAPGKWLEWVSDISWNGGSTYYADSVKGRFTISRDNAENTLYLQMNSLKPDDTAVYYCAKMGEGGWGANDYWGQGTQVTVSSGGGASGGGGSGGGGSGISLIAALAVDRVIGMENAMPWNLPADLAWFKRNTLNKPVIMGRHTWESIGRPLPGRKNIILSSQPGTDDRVTWVKSVDEAIAAAGDVPEIMVIGGGRVYEQFLPKAQKLYLTHIDAEVEGDTHFPDYEPDDWESVFSEFHDADAQNSHSYSFEILERRGGISLIAALAVDRVIGMENAMPWNLPADLAWFKRNTLNKPVIMGRHTWESIGRPLPGRKNIILSSQPGTDDRVTWVKSVDEAIAAAGDVPEIMVIGGGRVYEQFLPKAQKLYLTHIDAEVEGDTHFPDYEPDDWESVFSEFHDADAQNSHSYSFEILERRGGGLKDYKDDDDK
notes: Masked form; also called hHINT1-αCD3-1DD; HINT1-αCD3-1DD
B2: anti-CD3-1DD fusion protein (VHH)
chain: MGHHHHHHEVQLLEEVQLVESGGGLVQPGGSLRLSCAASGFTFDDYGMSWVRQAPGKWLEWVSDISWNGGSTYYADSVKGRFTISRDNAENTLYLQMNSLKPDDTAVYYCAKMGEGGWGANDYWGQGTQVTVSSGGGASGGGGSGGGGSGISLIAALAVDRVIGMENAMPWNLPADLAWFKRNTLNKPVIMGRHTWESIGRPLPGRKNIILSSQPGTDDRVTWVKSVDEAIAAAGDVPEIMVIGGGRVYEQFLPKAQKLYLTHIDAEVEGDTHFPDYEPDDWESVFSEFHDADAQNSHSYSFEILERRGGISLIAALAVDRVIGMENAMPWNLPADLAWFKRNTLNKPVIMGRHTWESIGRPLPGRKNIILSSQPGTDDRVTWVKSVDEAIAAAGDVPEIMVIGGGRVYEQFLPKAQKLYLTHIDAEVEGDTHFPDYEPDDWESVFSEFHDADAQNSHSYSFEILERRGGGLKDYKDDDDK
notes: Anti-CD3 nanobody fused to an E. coli DHFR dimer (1DD); also called αCD3-1DD; anti-CD3-DHFR2 fusion protein

Assays:
[1] = target: T1, CD3ε receptor on the surface of T cells (human, UniProt P07766 23-207); assay: dose-dependent titration by flow cytometry on T cells isolated from healthy donor blood; apparent KD
T1 construct: whole, on cells; The target stood on primary T cells, where CD3ε is part of the TCR/CD3 complex; also called human CD3ε; CD3 epsilon chain
Procedure: (§1) The apparent affinity of the fusion proteins was determined using flow cytometry with T cells isolated from healthy donor blood.

[2] = target: T1, CD3ε receptor on the surface of T cells; assay: ratio of apparent KD values from the flow cytometry titration on T cells; reference is unmasked anti-CD3-1DD
Procedure: as §1

T1 sequence (P07766 23-207): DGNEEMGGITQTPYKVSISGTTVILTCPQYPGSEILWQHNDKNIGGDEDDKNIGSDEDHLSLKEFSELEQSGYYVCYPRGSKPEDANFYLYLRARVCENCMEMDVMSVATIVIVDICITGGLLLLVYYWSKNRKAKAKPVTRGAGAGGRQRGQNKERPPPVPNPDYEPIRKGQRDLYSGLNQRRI

| Binder | Kd [1] | fold reduction of binding affinity against anti-CD3-1DD [2] |
| --- | --- | --- |
| B1 | > 4000 nM | ~40 fold |
| B2 | 100 nM | – |
